B1: OR4K15 (parent)
chain: GUUAACGGUCAUAGGCCAUGGAAACUAGGAGCACCAUUUCGCUGCCAGUGAAGAAAUGAACAAAGAAAAUCUGGGCCAGGCAGGCAUCAAAAGAAAUAGUCUUGCGCUCAACCAGAAAGUCUGUAAUCAUUUUAAGGGUA

In this data set the parent is B1. The data set can be described thus: self-cleavage, relative activity (ratio to wild type); higher = more cleavage; in vitro, sequencing; the parent is a self-cleaving ribozyme.
For the variant U39A A47U, the self-cleavage is 0.73.

C42U U139A: the self-cleavage worked out at 2.

With U39A U132C, the self-cleavage was found to be 1.97. For C42A A69G the value was 1.88; for U38C C88A, 1.74; for U39C A66G, 0.08. For G41A A114G the value was 0.75. The same measure for U39A A78U: 0.44.

Consider U39A A78G, for which the self-cleavage was 0.35. As for U39A A78C, the self-cleavage was determined as 0.23. The same measure for G41A U127C: 1.22; for G41A U127A: 2.15.

For the variant U39G A64G, the self-cleavage amounted to 1.12. For U39C A59G the value was 1.51; for U39C A59U, 1.98; for U39C A64U, 1.77. For U39C A64C the value was 1.88; for U38G A47G, 1.78; for U39C A91G, 1.4. For G41A U87A the value was 1.71; for G41U A55G, 2.29; for U39C A129G, 1.7. Regarding U39C A129U, the self-cleavage turned out to be 1.16.

In the case of U38C C77U, the self-cleavage is 2.04.

For U38C G74A, the self-cleavage was 0.33. For the variant U38C U57G, the self-cleavage worked out at 1.4. The same measure for G41U A52G: 1.47; for C42U C105U: 0.05.

On to U39A G137A, for which the self-cleavage amounted to 1.8. For U38C U124C the value was 1.21; for U39C A89G, 1.73. For U39C A89C the value was 1.38. The same measure for C42U: 1.44; for C42G: 1.62. C42A: the self-cleavage was determined as 0.45. As to C40U A126U, the self-cleavage worked out at 1.31. The same measure for U39C A55U: 2.15; for U39A A116G: 1.2.

As for U39G A47U, the self-cleavage was determined as 0.98. For C40G A94G the value was 0.63; for C40G A134G, 0.82. The same measure for U38C G41A: 1.95. The same measure for G41A A91G: 1.55; for U39A U87C: 1.53; for U43A U70C: 0.98. In the case of U43A U70G, the self-cleavage stood at 1.12.

For the variant C42U A60G, the self-cleavage came out at 1.17. For G41U A68G the value was 1.46.

On to U38C G75C, for which the self-cleavage was determined as 0.14. The same measure for U38C G75A: 0.13; for U39C U43A: 1.92.

In the case of U39C U43C, the self-cleavage stood at 1.57.

On to U38C C121U, for which the self-cleavage was found to be 1.86. The same measure for C40A U108A: 0; for G41U A66G: 1.11. For U39C the value was 1.34; for U39A, 1.35; for U39G, 0.79. The same measure for G41U U130C: 1.59; for U38C U132A: 1.77; for U43A A68G: 1.25.

For the variant U39C U122C, the self-cleavage turned out to be 1.84. For U39C U122G the value was 1.81; for U39C U122A, 1.58. For U39A A129C the value was 1.24; for G41A A126G, 1.48.

As for U38C C113U, the self-cleavage is 0.14. The same measure for U38G A118G: 0.95; for U39C G136A: 2.38.

For the variant U39A A60G, the self-cleavage was 0.99. For U39G U132C the value was 0.94; for U39A A91G, 1.56; for G41A U122C, 1.67. For C40U A59G the value was 2.06. For U38C U72A the value was 0.11.

Consider U38C U72G, for which the self-cleavage is 0.27. For U38C U72C the value was 0.27. For U43A A89U the value was 1.74.

On to U38C U133A, for which the self-cleavage worked out at 1.64. The same measure for U39C A92U: 1.99; for U39C A92G: 1.3; for U39A U127C: 0.28.

U39C U127C: the self-cleavage was determined as 1.18. U38C G93U: the self-cleavage was 2.26. The same measure for U38C G93A: 2.41; for U38C G80U: 0.06. For U38C U131C the value was 1.33. For the variant U39C C101U, the self-cleavage came to 0.46. The same measure for U43A A47U: 1.13; for C42G A111G: 0; for C40U U132A: 1.27.

For the variant C40U A52G, the self-cleavage turned out to be 1.54. The same measure for U39A A86C: 1.21; for U39C A90G: 0.84. The same measure for U39C A69G: 1.37; for U39C A117U: 1.08. Turning to U39C A117G, the self-cleavage was 1.95.

For U39A A59G, the self-cleavage came out at 1.6. The same measure for U39C G104A: 0.03; for U38C G44A: 1.16; for U39A G104A: 0.03. As for G41U A117G, the self-cleavage is 1.93. For U39C A60U the value was 1.88.

Take U39C A60C: the self-cleavage was 2.05. For U38C C112U the value was 0.02. For U38C C112A the value was 0; for U39C U108C, 0.02. For U39A A52G the value was 1.21. On to U38C U70A, for which the self-cleavage came to 0.58.

As for G41A A94G, the self-cleavage turned out to be 1.9.

With U43A A95G, the self-cleavage was determined as 0.92.

Consider U39A A126G, for which the self-cleavage was determined as 1.59.

U39A A126C: the self-cleavage came out at 0.87. The same measure for U43A A135G: 1.91; for U43A A135C: 1.29. The same measure for U43A A135U: 2.21. For the variant U39C A95G, the self-cleavage was 1.53. For C40A U49C the value was 1.85; for U43A, 1.58. Take U38C G119U: the self-cleavage is 1.69. The same measure for G41A A56G: 2.07; for U38C U108C: 0.02.

With U39G A92G, the self-cleavage came to 1.57. The same measure for U39A U57C: 0.73; for U39C U49A: 1.41. The same measure for G41A A54G: 1.09.

Regarding U38C U39A, the self-cleavage amounted to 0.89. For C40G G74A the value was 0.29; for U39C A125G, 0.66; for U39A U100C, 2.25. The same measure for U39A U100A: 0.55. As to U39C A62U, the self-cleavage amounted to 1.95. For U39C A62G the value was 0.75; for U39A A92G, 0.92; for C40U A55G, 1.67. For U39C C61U the value was 2.41; for U39A U108C, 0.02. The same measure for C40A G65A: 1. On to U39C C71A, for which the self-cleavage stood at 0.38. For U43A A90G the value was 0.76; for U43A A90U, 1.74. The same measure for U38C C61A: 0.99. The same measure for G41C U43C: 2.19. Regarding G41C, the self-cleavage is 1.78. The same measure for G41U: 1.74.

G41A: the self-cleavage is 1.67. For U39C A135U the value was 1.73; for U39C A135G, 1.82.

In the case of U39A U49A, the self-cleavage was 1.4. For U39A U120A the value was 1.92; for U39A U120C, 0.95.

Consider U39C U87C, for which the self-cleavage is 1.31. For U39A A94G the value was 1.47. Turning to U39A A94C, the self-cleavage worked out at 1.87. The same measure for U39C C76A: 0.13; for U38C C40A: 1.48; for U39C A94C: 1.43.

In the case of U39C A94G, the self-cleavage was determined as 1.34.

Turning to C42U U108A, the self-cleavage came to 0. The same measure for U43A A96U: 1.72; for U43A A96G: 2.07; for U39C A110U: 1.06. For U39C U131C the value was 1.05. For G41A U70C the value was 1.12; for U43A A59G, 1.52; for G41A A60G, 1.63.

In the case of U39C C77A, the self-cleavage was 0.77.

Source of the values: the RNAGym collection of RNA variant scans (doi:10.7554/elife.90254).
